Test results published in publication PMC4919469.

Columns and labels:
Cdc42Δ7Q61L (human) = Cdc42Δ7Q61L (human) (UniProt P60953); assay: scintillation proximity assay; competition; free effector domain titrated into 30 nM Cdc42·[3H]GTP and 30 nM GST-ACK (in Fig. 7B GST-ACK or GST-WASP GBD) immobilised on a fluoromicrosphere; Kd from competition binding isotherms
[1] = biological target: full-length Cdc42Q61L (human) (UniProt P60953); assay: as above
full-length Cdc42Q61L (human), sequence (P60953 whole entry Q61L): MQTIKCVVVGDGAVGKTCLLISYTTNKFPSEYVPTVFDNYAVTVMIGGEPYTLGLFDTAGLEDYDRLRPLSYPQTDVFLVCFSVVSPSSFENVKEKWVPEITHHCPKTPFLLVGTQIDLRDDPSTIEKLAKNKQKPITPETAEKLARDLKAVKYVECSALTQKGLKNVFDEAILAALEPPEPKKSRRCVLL

Cdc42Δ7Q61L (human), sequence (P60953 1-184 Q61L): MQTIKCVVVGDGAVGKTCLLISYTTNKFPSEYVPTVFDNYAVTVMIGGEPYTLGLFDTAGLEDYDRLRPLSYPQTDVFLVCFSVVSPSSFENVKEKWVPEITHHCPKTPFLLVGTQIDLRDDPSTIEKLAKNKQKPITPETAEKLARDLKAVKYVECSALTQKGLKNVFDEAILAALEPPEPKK

Kd (Cdc42Δ7Q61L (human)): 32 nM
Kd [1]: 11 nM
Substance: free ACK GBD (domain or fragment)
